Source: patent publication US20120189540A1 (STEMLINE THERAPEUTICS, published 2012)

Key:
[1] = molecular target: transferrin receptor (human) (UniProt P02786); assay: cell-based or functional assay
[2] = molecular target: IL-3 receptor alpha subunit (IL3Rα, CD123) (human) (UniProt P26951); assay: flow cytometry on ML-1 cells, isotype control-PE at 10 µg/ml [panel ML-1 (1900/cell]
[3] = molecular target: T1, IL-3 receptor alpha subunit (IL3Rα, CD123) (human, UniProt P26951 19-378); assay: flow cytometry on TF-1 cells (CD123-expressing), mAb at 0.5 µg/ml, detected with R-PE goat F(ab')2 anti-mouse IgG, MOPC-21 isotype control subtracted [panel A]
T1 construct: whole, on cells; also called IL3Rα chain; alpha subunit of the IL-3 receptor
T1 sequence (P26951 19-378): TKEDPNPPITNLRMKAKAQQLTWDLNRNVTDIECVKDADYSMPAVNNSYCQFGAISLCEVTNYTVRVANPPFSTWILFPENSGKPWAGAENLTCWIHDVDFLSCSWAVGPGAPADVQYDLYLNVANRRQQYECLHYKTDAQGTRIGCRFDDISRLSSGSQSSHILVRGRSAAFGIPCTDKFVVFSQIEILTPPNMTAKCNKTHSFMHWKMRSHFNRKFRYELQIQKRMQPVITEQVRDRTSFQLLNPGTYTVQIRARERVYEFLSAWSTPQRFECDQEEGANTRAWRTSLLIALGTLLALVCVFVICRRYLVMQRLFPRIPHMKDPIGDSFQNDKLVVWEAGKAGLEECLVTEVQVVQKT

Chain of transferrin receptor (human) (P02786 whole entry): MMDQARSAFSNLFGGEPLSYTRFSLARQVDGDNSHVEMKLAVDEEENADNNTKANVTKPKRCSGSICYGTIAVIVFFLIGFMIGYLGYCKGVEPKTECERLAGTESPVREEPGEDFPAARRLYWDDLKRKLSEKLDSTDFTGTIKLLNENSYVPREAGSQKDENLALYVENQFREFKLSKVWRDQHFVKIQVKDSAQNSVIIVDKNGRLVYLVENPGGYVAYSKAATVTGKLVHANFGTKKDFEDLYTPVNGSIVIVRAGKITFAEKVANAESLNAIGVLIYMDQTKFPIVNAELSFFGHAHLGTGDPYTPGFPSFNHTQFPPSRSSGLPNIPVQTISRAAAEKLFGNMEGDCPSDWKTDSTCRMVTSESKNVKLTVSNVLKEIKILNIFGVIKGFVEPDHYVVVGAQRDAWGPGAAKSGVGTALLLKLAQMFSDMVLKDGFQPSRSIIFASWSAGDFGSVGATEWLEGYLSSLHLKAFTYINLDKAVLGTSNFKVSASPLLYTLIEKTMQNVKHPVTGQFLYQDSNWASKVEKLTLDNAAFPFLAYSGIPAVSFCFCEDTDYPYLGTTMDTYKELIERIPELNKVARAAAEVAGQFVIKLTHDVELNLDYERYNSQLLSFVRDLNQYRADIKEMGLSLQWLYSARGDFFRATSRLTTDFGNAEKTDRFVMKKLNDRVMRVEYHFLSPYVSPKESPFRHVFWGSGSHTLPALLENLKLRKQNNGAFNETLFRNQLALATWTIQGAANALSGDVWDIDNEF
Chain of IL-3 receptor alpha subunit (IL3Rα, CD123) (human) (P26951 19-378): as the sequence (P26951 19-378) above

## HB21(Fv)-PE40 (scFv)
[1]
  IC50(ng/ml), cytotoxicity (WST-8 cell viability) on ML-1: 5.2 ng/mL
  IC50(ng/ml), cytotoxicity (WST-8 cell viability) on Molm-14: 60 ng/mL
  IC50(ng/ml), cytotoxicity (WST-8 cell viability) on TF-1: 2.2 ng/mL

## isotype control-PE (antibody)
[2]
  number printed beside the histogram (fluorescence on the FL-2:PE axis, not named on the sheet): 7.1

B1: monoclonal antibody 26292 (antibody, V domains shown)
VH: QVQLQQPGAELVRPGASVKLSCKASGYTFTSYWMNWVKQRPDQGLEWIGRIDPYDSETHYNQKFKDKAILTVDKSSSTAYMQLSSLTSEDSAVYYCARGNWDDYWGQGTTLTVSS
VL: DVQITQSPSYLAASPGETITINCRASKSISKDLAWYQEKPGKTNKLLIYSGSTLQSGIPSRFSGSGSGTDFTLTISSLEPEDFAMYYCQQHNKYPYTFGGGTKLEIK
[3]
  binding result: binds

B2: monoclonal antibody 32701 (antibody, V domains shown)
VH: QIQLVQSGPELKKPGETVKISCKTSGYVFTNYGMNWVKQAPGKGFKWMGWMNTNTGEPTSLEDFKGRFAFSLETSASTAYLQINNLKNDDTATYFCARSGGYDPMDYWGQGTSVTVSS
VL: DIVLTQSPASLAVSPGQRATISCRASESVDNYGNTFMHWYQQKPGQPPKLLIYRASNLESGIPARFSGSDSRTDFTLTINPVEADDVATYYCQQSKEDPPTFGAGTKLELK
[3]
  binding result: binds

B3: monoclonal antibody 32716 (antibody, V domains shown)
VH: QIQLVQSGPELKKPGETVKISCKASGYIFTNYGMNWVKQAPGKSFKWMGWINTYTGESTYSADFKGRFAFSLETSASTAYLHINDLKNEDTATYFCARSGGYDPMDYWGQGTSVTVSS
VL: DIVLTQSPASLAVSLGQRATISCRASESVDNYGNTFMHWYQQKPGQPPKLLIYRASNLESGIPARFSGSGSRTDFTLTINPVEADDVATYYCQQSNEDPPTFGAGTKLELK
[3]
  binding result: binds
